Values quoted from earlier work as cited in paper PMC6934062.

Molecular target: TDP-43 NTD (Homo sapiens) (UniProt Q13148)

- Kd: 70 µM
Substance: TDP-43 NTD (from UniProt Q13148)
